Source: patent US20040254341A1 (published 2004)
Non-standard residues stand in square brackets, D forms with d. No end group written: not given here. Nle = CCCC[C@H](N)C(=O)O

B1: SEVSY-↓-DAEFR (peptide)
peptide: SEVSYDAEFR
B2: KTITL-↓-EVEPS (peptide)
peptide: KTITLEVEPS
B3: SEVSY-↓-EVEFR (peptide)
peptide: SEVSYEVEFR
B4: SEVSY-↓-EAEFR (peptide)
peptide: SEVSYEAEFR
B5: KTISL-↓-DVEPS (peptide)
peptide: KTISLDVEPS
B6: KTINnle-↓-DVDPS (peptide)
peptide: KTIN[Nle]DVDPS

Target: human Asp2 aspartyl protease (Hu-Asp2), purified enzyme used in the in vitro cleavage assays (human, UniProt P56817 46-456, limits assumed)
Experiment: cell-based or functional assay

human Asp2 aspartyl protease (Hu-Asp2), purified enzyme used in the in vitro cleavage assays, sequence (P56817 46-456 Q214H limits assumed): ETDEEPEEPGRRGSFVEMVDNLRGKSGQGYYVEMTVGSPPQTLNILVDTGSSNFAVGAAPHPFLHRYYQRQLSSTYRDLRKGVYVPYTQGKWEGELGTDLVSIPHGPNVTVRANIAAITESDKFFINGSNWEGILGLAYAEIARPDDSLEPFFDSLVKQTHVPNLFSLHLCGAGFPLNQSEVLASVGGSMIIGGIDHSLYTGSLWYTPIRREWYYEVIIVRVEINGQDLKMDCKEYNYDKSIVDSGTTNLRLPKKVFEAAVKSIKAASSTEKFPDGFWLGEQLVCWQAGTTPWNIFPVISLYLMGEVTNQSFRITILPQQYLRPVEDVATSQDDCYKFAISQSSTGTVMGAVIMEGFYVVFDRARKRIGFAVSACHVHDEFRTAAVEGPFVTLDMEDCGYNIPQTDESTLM

Row | Binder | activity against wild-type [fold] | activity against wild type peptide [fold] | also measured
1 | B1 | ~9 |  | 
2 | B2 |  | 6 | 
3 | B3 |  | ~70 | 
4 | B4 | ~40 |  | 
5 | B5 |  |  | activity against wild-type peptide: ~35 fold
6 | B6 |  |  | activity against peptide #3 (SEQ ID NO:134): ~10 fold reduction
